This is an account of results in article doi:10.1101/2023.10.06.561269 (bioRxiv, 2023).

The data set deals with the molecule itself. Kind of data set: cryo-EM structure.

B1: V. cholerae FtsX (natural protein)
chain: MAVKPGNQKISKTTKSTKSKPRDVKRAKTDSFLAIHFKQAKASFAALWRRPLGNILTLAVISMALALPASLYLLSKNIASVAERVAEPSQLSVYLHIDTPEPRIIVLKDDLERRDEIAKVKYISPQQGLDDLSQYAGFEQAISLLDNATLPAVLVVTPKVDSREQIQTLAKALQAEEGVTDVRMDEDWFARLDAIRHLATIVVISLSSLMLMSVFLIVGNTLRFNVQANKEEIQTMKLIGATDAYILRPYLYSGMWFGLLGAVAAWLLTALMTILLNGAVEALAQLYDSRFRLIGLGWDESLLLLMLGVFLGCVAAKVSAKRHLKEIEPV
As usually defined, the stoichiometry N is a count of units in the complex or per binding partner. For the protein B1, the “stoichiometry N” value turned out to be 2.

B2: V. cholerae FtsE (natural protein)
chain: MIRFQQVSKAYRGGRQALQKVDFHLRRGEMAFLGGHSGAGKSTLLKLICAIERPTDGKISFNGHDITRIPNKDIPFLRRNIGIVFQDHRLLMDRSIYDNVALPMRIESISENEIKRRVSAALDKTGLLDKARCLPSQLSGGEQQRVGIARAVVNRPTLLLADEPTGNLDPELSSRVLRLFEEFNRAGVTILLATHDIHLVNSRPQYRHLELNQGFLSEVADYGR
For B2, the “stoichiometry N” value amounted to 2.
